Assay [1] has as its target T1, RSV-N(13-391) (Human respiratory syncytial virus A, UniProt P03418). Briefly: biochemical. Particulars: from ΔG = RT ln Kd and IC50 = 2 × Kd; 10 mM Tris-HCl pH 7.5 at 21°C; approximate. On the procedure: (§1) Samples of 10 μl containing peptides and proteins as indicated were prepared in buffer composed of 10 mM Tris-HCl (pH 7.5) +0.01% Brij-35 detergent (Pierce Surfact-Amps-35, Thermo Fisher Scientific, Rockford, IL) in low-volume 384-well black polystyrene assay plates (Thermo Fisher Scientific, Hudson, NH). After a 5 minute incubation, fluorescence anisotropy was measured with a Pherastar plate reader (BMG Labtech, Cary, NC) equipped with a filter module having a 485 nm excitation filter and 520 nm emission filters with polarizers. The focal height was 10.8 mm. Each measurement used 50 flashes. The parallel and perpendicular detector gains were set to 392 and 366 in order to produce an anisotropy of about 0.03 in the absence of binding.
The averages of triplicate anisotropy measurements made at each competitor concentration were used to calculate % inhibition using the equation %inhibition=1001–r–rmin/rmax–rmin where r is the anisotropy at the competitor concentration, rmin is the anisotropy with no RSV-N(13-391), and rmax is the anisotropy with no competititor.
(§2) All fluorescence anisotropy measurements were performed at ambient temperature, approximately 21°C.
For the BP5 competition assay, the P protein storage buffer was replaced by repeated concentration using centrifugal ultrafiltration with a Millipore Ultrafree 0.5 unit with Biomax-10 membrane (EMD Millipore, Billerica, MA) and dilution with 10 mM Tris-HCl (pH 7.5). The protein concentration was determined by the method of Bradford using bovine serum albumin as the standard. Serial dilutions of P were prepared in 10 mM Tris-HCl (pH 7.5) +0.01% Brij-35.

Assay [2] deals with T1, RSV-N(13-391). On the procedure:
as §1
The averages of triplicate fluorescence anisotropy measurements made at each RSV-N(13-391) concentration were fit to the equation y=yo+aN/Kd+N where y is the anisotropy, yo is the anisotropy of peptide alone, [N] is the RSV-N(13-391) concentration, and yo + a is the anisotropy of fully bound peptide.
as §2

Assay [3] addresses T2, 15N-labeled N(31-252) (Human respiratory syncytial virus A, UniProt P03418).
T2 construct: His6 (N); TEV protease cleavage recognition site (N); made in house; host or cells: E. coli BL21(DE3)pLysS, M9 minimal medium with [15N]; NH4Cl
Put plainly: 2-D NMR [15N,1H] TROSY titration, chemical shift perturbation. Type of assay: binding, human respiratory syncytial virus (strain A2). The settings on record: 0.15 mM 15N N(31-252); 25 mM HEPES pH 7.5, 100 mM NaCl, 1 mM DTT, 1 mM EDTA; 298 K; global best fit ± standard error of fit; read-out: Kd measured by NMR. On the procedure: NMR spectra were acquired at 298 K with a 600 MHz NMR instrument (Bruker, Billerica MA) equipped with an AVANCE III console and a triple-resonance cryogenic probe. Samples were at pH 7.5 in a 25 mM HEPES buffer containing 100 mM NaCl, 1 mM dithiothreitol, and 1 mM EDTA. The concentration of ^15N labeled RSV N(31-252) was 0.15 mM. Two-dimensional [^15N, ^1H] transverse relaxation optimized spectroscopy (TROSY) experiments were recorded with increasing ligand concentration. Evolution times were approximately 53 ms in the ^1H dimension and 29 ms in the ^15N dimension. The total acquisition time was 28 min per experiment.
To estimate the dissociation constant (Kd) from NMR experiments, ^15N-RSV N(31-252) was titrated with a range of ligand concentrations. The weighted average of chemical shift changes (Δδ(N, H)obs) is calculated using the following equation: ΔδN,Hobs=ΔδHN^2+ΔδΝ/5^2 where ΔδHN and ΔδN are the chemical shift changes of amide protons and nitrogens, respectively. Then Δδ(N, H)obs data were fitted by non-linear regression globally against the total concentration of the subtrate (LT) with the equation: ΔδN,Hobs=ΔδN,HmaxKd+LT+ET‐Kd+LT+ET^2−4LTET/2ET where Δδ(N, H)max is the maximum chemical shift difference, ET is the total concentration of N(31-352) in the solution, and LT is the total concentration of ligand.

Assay [4] has as its target T3, RSV N(13-391), N-terminally truncated nucleocapsid protein (human respiratory syncytial virus, …, UniProt P03418 13-391).
T3 construct: source: E. coli BL21(DE3)pLysS, purified (Ni2+ chelating, Q-Sepharose, Superdex 200)
T3 sequence: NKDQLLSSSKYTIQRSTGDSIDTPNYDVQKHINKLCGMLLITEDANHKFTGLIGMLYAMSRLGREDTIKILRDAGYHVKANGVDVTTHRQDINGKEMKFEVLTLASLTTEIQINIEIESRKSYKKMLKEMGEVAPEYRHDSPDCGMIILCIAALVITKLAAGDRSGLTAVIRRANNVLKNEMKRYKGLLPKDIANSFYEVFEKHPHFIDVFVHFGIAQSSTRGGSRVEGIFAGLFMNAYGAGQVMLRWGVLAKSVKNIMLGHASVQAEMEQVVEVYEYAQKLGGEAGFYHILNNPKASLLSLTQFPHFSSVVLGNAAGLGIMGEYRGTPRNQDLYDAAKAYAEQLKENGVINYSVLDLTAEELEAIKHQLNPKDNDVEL
Put plainly: fluorescence polarisation; fluorescence anisotropy, direct binding; 100 nM BP1 or 25 nM BP5, N(13-391) varied; 10 mM Tris-HCl pH 7.5, 0.01% Brij-35; about 21 °C. Particulars: both partners purified.

Assay [5] deals with T3, RSV N(13-391), N-terminally truncated …. Put plainly: SPR; Biacore T200; His10-P immobilised on NTA chip (nickel capture, amine coupling); 100 nM N(13-391) mixed with peptide series; 20 mM HEPES-NaOH pH 7.5, 100 mM NaCl, 1 mM EDTA, 1 mM TCEP, 0.005% Tween 20, 1% DMSO. The settings on record: both partners purified.
Assay [6] shares this target. Put plainly: fluorescence polarisation; fluorescence anisotropy, competition with 25 nM BP5 and 75 nM N(13-391), competitor varied; 10 mM Tris-HCl pH 7.5, 0.01% Brij-35; about 21 °C. Particulars: both partners purified.
Assay [7] shares this target. Described as above. The settings on record: both partners purified. The source holds these as a separate data set.
The target in assay [8] is T4, RSV N(31-252), nucleocapsid construct consisting of residues 31-252 (human respiratory syncytial virus, …, UniProt P03418 31-252).
T4 construct: source: E. coli BL21(DE3)pLysS, purified (Ni2+ chelating, Superdex 200)
T4 sequence: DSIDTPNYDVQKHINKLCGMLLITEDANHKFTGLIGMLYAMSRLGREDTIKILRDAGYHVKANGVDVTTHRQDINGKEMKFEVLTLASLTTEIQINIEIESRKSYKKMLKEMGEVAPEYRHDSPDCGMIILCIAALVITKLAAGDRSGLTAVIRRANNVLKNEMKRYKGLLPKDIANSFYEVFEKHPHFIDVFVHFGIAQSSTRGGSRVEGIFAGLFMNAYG
Put plainly: NMR titration; 2-D [15N,1H] TROSY of 0.15 mM 15N-labeled N(31-252) with increasing ligand; 25 mM HEPES pH 7.5, 100 mM NaCl, 1 mM DTT, 1 mM EDTA; 298 K. Particulars: both partners purified.

Assay [9] addresses T3, RSV N(13-391), N-terminally truncated …. Briefly: fluorescence polarisation. Particulars: both partners purified.

“And” between values parts separate entries of the source, which are not always exact repeats. Equal values may be shown once. Square brackets hold non-standard residues; d marks the D form. Ends that are not written are not given here. Peptide text beside a SMILES is read from it. * marks the point of attachment. BODIPY(FL) = CC1=CC(C)=[N+]2C1=Cc1ccc(CCC(=O)*)n1[B-]2(F)F; pS = N[C@@H](COP(=O)(O)O)C(=O)O

As to `CC(C)C[C@H](NC(=O)[C@H](COP(=O)(O)O)NC(=O)[C@H](CC(C)C)NC(=O)[C@H](CC(=O)O)NC(=O)[C@H](CC(N)=O)NC(=O)[C@H](CC(=O)O)NC(=O)[C@H](COP(=O)(O)O)NC(=O)[C@@H](N)CC(=O)O)C(=O)N[C@@H](CCC(=O)O)C(=O)N[C@@H](CC(=O)O)C(=O)N[C@@H](C)C(=O)O` [D(pS)DNDL(pS)LEDA], the “ΔG of binding to RNA-free N(13-391)” value in assay [1] was -6.0 kcal/mol.

As for `Cc1cc(C)n2c1C=C1C=CC(CCC(=O)N[C@@H](CC(=O)O)C(=O)N[C@@H](COP(=O)(O)O)C(=O)N[C@@H](CC(=O)O)C(=O)N[C@@H](CC(N)=O)C(=O)N[C@@H](CC(=O)O)C(=O)N[C@@H](CC(C)C)C(=O)N[C@@H](COP(=O)(O)O)C(=O)N[C@@H](CC(C)C)C(=O)N[C@@H](CCC(=O)O)C(=O)N[C@@H](CC(=O)O)C(=O)N[C@@H](Cc3ccccc3)C(=O)O)=[N+]1[B-]2(F)F` [BP5] ({BODIPY(FL)}-D[pS]DNDL[pS]LEDF-OH), the “Effect of KCl concentration (ionic strength) on affinity for N(13-391)” value in assay [2] (Kds measured with N(13-391) 1.95 to 2000 nM in triplicate, Figure 1B) is on record as “diminished as the ionic strength increased”. Also, the “affinity relative to unphosphorylated peptide BP1” value in [2] (ratio of Kds for N(13-391)) is listed as “about 10 times”.

As to DSDNDLSLEDF, in assay [1], the “ΔG of binding to RNA-free N(13-391)” value was -6.9 kcal/mol.

In the case of `N[C@@H](CC(=O)O)C(=O)N[C@@H](Cc1ccccc1)C(=O)O` [DF, Asp-Phe, reference compound] (H-Asp-Phe-OH), the Kd in assay [3] is 2600 µM.

With `CC(C)C[C@H](NC(=O)[C@H](COP(=O)(O)O)NC(=O)[C@H](CC(C)C)NC(=O)[C@H](CC(=O)O)NC(=O)[C@H](CC(N)=O)NC(=O)[C@H](CC(=O)O)NC(=O)[C@H](COP(=O)(O)O)NC(=O)[C@@H](N)CC(=O)O)C(=O)N[C@@H](CCC(=O)O)C(=O)N[C@@H](CC(=O)O)C(=O)N[C@@H](Cc1ccccc1)C(=O)O` [D(pS)DNDL(pS)LEDF] (H-D[pS]DNDL[pS]LEDF-OH), the “ΔG of binding to RNA-free N(13-391)” value in [1] was -8.7 kcal/mol.

B1: BP5, BODIPY-FL labeled peptide 5 (D(pS)DNDL(pS)LEDF) (peptide)
peptide: {BODIPY(FL)}-D[pS]DNDL[pS]LEDF
notes: C-terminal 11 residues (231-241) of RSV phosphoprotein P; C-terminus uncapped; source: synthetic peptide (Biopeptide Co.), labelled with BODIPY FL SSE, purified on Sephadex LH-20
B1 returned a Kd in [4] of 0.078 µM.

B2: D(pS)DNDLSLEDF (P C-terminal peptide phosphorylated on the N-terminal serine) (peptide)
peptide: D[pS]DNDLSLEDF
notes: residues 231-241 of RSV phosphoprotein P; N- and C-termini uncapped; source: synthetic peptide (Biopeptide Co.)
Consider B2, for which the IC50 in [5] came out at 44 µM; in assay [6] it was 2.17 µM.

B3: peptide 1, DSDNDLSLEDF (unphosphorylated P C-terminal peptide) (peptide)
peptide: DSDNDLSLEDF
notes: as for B2
Regarding B3, the half-maximal inhibitory concentration (IC50) in [5] was determined as 230 µM; in assay [6], 15.3 µM. This molecule came in with a Kd in assay [7] of approximately 7.6 µM.

B4: peptide 5, D(pS)DNDL(pS)LEDF (doubly phosphorylated P C-terminal peptide) (peptide)
peptide: D[pS]DNDL[pS]LEDF
notes: as for B2
For the molecule B4, the Kd in [8] is 74 µM; in assay [7], approximately 0.34 µM. In addition, the concentration for half-maximal inhibition (IC50) is 13.6 µM in assay [5]; 0.61 µM and 0.74 µM in assay [6].

B5: BP1, BODIPY-FL labeled peptide 1 (DSDNDLSLEDF) (peptide)
peptide: {BODIPY(FL)}-DSDNDLSLEDF
notes: as for B1
Molecule B5 returned a Kd in [4] of 0.76 µM.

B6: DSDNDLSLEDA (unphosphorylated P C-terminal peptide, C-terminal Phe changed to Ala) (peptide)
peptide: DSDNDLSLEDA
notes: also called Ala-modified peptide; source: synthetic peptide (Biopeptide Co.)
For B6, in assay [9], the IC50 is more than 200 µM.

B7: D(pS)DNDL(pS)LEDA (doubly phosphorylated P C-terminal peptide, C-terminal Phe changed to Ala) (peptide)
peptide: D[pS]DNDL[pS]LEDA
notes: source: synthetic peptide (Biopeptide Co.)
B7 registered a 50% inhibitory concentration (IC50) in [9] of 69 µM.

B8: DSDNDL(pS)LEDF (P C-terminal peptide phosphorylated on the C-terminal serine) (peptide)
peptide: DSDNDL[pS]LEDF
notes: as for B2
On to B8, for which the half-maximal inhibitory concentration (IC50) in assay [5] came out at 31 µM; in assay [6], 1.51 µM.

Values taken from publication PMC4239318, “Quantitative investigation of the affinity of human respiratory syncytial virus phosphoprotein C-terminus binding to nucleocapsid protein” (Virology Journal, 2014).
